The results in this text go back to publication PMC4511852.

Test [1] concerns the target His8-RSL-Avitag (RSL with poly-histidine on the N-terminus and biotin via the Avitag on the C-terminus) (Ralstonia solanum). The test is described as follows: SEC. On the technique in general: SEC sorts molecules by how far they enter the pores of the column.
Test [2] concerns the target Avitag-RSL-His8 (RSL with biotin via the Avitag on the N-terminus and His8 on the C-terminus) (Ralstonia solanum). The test is described as follows: SEC.

For orientation: stoichiometry N means the number of molecules, sites or subunits per partner or assembly. “His8-RSL-Avitag (RSL with poly-histidine on the N-terminus and biotin via the Avitag on the C-terminus) (natural protein)” returned a stoichiometry N in test [1] of 3.
On to “Avitag-RSL-His8 (RSL with biotin via the Avitag on the N-terminus and His8 on the C-terminus) (natural protein)”, for which, in test [2], the stoichiometry N was found to be 2.
